Tests used:
E. coli = experiment: Growth of E. coli clones in M9 minimal media containing glyphosate (OD600); type: cell-based; conditions: 37° C., 28 hours after inoculation, triplicate
Protocol: Starter cultures of E. coli containing GDC-1 (full), GDC-2, or vector alone were grown overnight in LB media, diluted 1:1000 into 3 ml M9 minimal media containing 0, 2, 5, 10, 20 and 30 mM glyphosate and grown at 37° C. Each strain was grown in triplicate at each concentration. OD600 was measured at 0, 7, 24, and 28 hours after inoculation.

E. coli ΔaroA = experiment: Genetic complementation of aroA (EPSP synthase) deletion mutant; type: cell-based; conditions: ΔaroA plated on LB, M63, and M63 with phenylalanine, tryptophan, tyrosine
Text: The E. coli aroA gene codes for EPSP synthase, the target enzyme for glyphosate. […] However, genes encoding EPSPS activity can restore ability to grow […] upon aroA mutant E. coli strains. Thus, a test for genetic complementation of an aroA mutant is a highly sensitive method to test if a gene is capable of functioning as an EPSPS in E. coli. Such tests for gene function by genetic complementation are known in the art.
A deletion of the aroA gene was created in E. coli XL-1 MRF′ (Stratagene) by PCR/recombination methods known in the art and outlined by Datsenko and Wanner, (2000) Proc. Natl. Acad. Sci. USA 97:6640-6645. This system is based on the Red system that allows for chromosomal disruptions of targeted sequences. A large portion (1067 nt of the 1283 nt) of the aroA coding region was disrupted by the engineered deletion.
The ability of an EPSPS to complement the mutant phenotype of ΔaroA was confirmed. Clone pAX482, an E. coli expression vector containing the wild-type E. coli aroA gene, was transformed into ΔaroA, and transformed cells were selected. These cells (containing a functional aroA gene residing on a plasmid) were then plated on LB media, M63, and M63 with amino acid supplements. […]

[1] = Acetolactate synthase activity (acetoin detection, absorbance 525 nm); type: biochemical; conditions: 50 mM pyruvate, pH 7.0, 2 hours at 37° C.
Protocol: Acetolactate synthases are decarboxylating enzymes that condense two pyruvate molecules to form acetolactate with the release of a CO2 moiety from one of the pyruvate substrates. In the detection of the enzymatic reaction described by Pang and Duggleby (Pang and Duggleby (1999) Biochemistry 18:5222-5231), the product acetolactate is converted to acetoin by incubation with 1% H2SO4 for 15 minutes at 60° C. followed by neutralization with KOH. The acetoin is then detected as described by Westerfeld (Westerfeld (1945) J. Biol. Chem. 161:495-502), using 0.15% creatine and 1.5% alpha-naphthol (dissolved in 2.5 N NaOH). The red colored reaction product is quantified by absorbance at 525 nm.
Samples containing either 5 μg or 10 μg of GDC-2 were incubated in 50 mM pyruvate, 1 mM […] pyrophosphate, 10 mM MgCl2, 0.01 mM Flavin adenine dinucleotide (FAD), 100 mM potassium phosphate buffer pH 7.0 (total reaction volume of 50 μl) for 2 hours at 37° C. The reaction was stopped by the addition of 1 μl of 50% sulfuric acid (H2SO4) and incubated at 60° C. for 15 minutes. The reaction was neutralized by the addition of 30 μl of 1 N KOH followed by the addition of 10 μl of 1.5% creatine and 10 μl of 15% alpha-napthol dissolved in 2.5 N NaOH. The red colored reaction product was quantified by absorbance at 525 nm.

[2] = Standard pyruvate decarboxylase assay, coupled with alcohol dehydrogenase (absorbance at 340 nm); type: biochemical; conditions: 100 ng of GDC-1 protein; decrease in absorbance at 340 nm
Protocol: 100 ng of GDC-1 protein was tested for activity in a standard pyruvate decarboxylase assay (Gounaris et al. (1971) J. of Biol. Chem. 246:1302-1309). This assay is a coupled reaction where in the first step the pyruvate decarboxylase (PDC) converts pyruvate to acetaldehyde and CO2. The acetaldehyde produced in this reaction is a substrate for alcohol dehydrogenase, which converts acetaldehyde and β-NADH to ethanol and β-NAD. Thus, PDC activity is detected by virtue of utilization of β-NADH as decrease in absorbance at 340 nm in a spectrophotometer. GDC-1 as well as a control enzyme (pyruvate decarboxylase, Sigma) were tested in this assay.

[3] = In vitro modification of C14 labeled glyphosate, products analysed by HPLC; type: biochemical; conditions: 100 ng protein, 2 mM glyphosate, Na-Citrate pH 6.0, 1 mM TPP, 2 mM MgCl2, 60 minutes
Protocol: The ability of GDC-1 to modify glyphosate in vitro was tested by incubating GDC-1 with a mixture of radiolabeled and non-labeled glyphosate, and analyzing the reaction products by HPLC.
100 ng of GDC-1 purified protein was incubated with 20,000 cpm of C^14 labeled glyphosate (NaOOCCH2NH^14CH2PO3H2; Sigma catalog #G7014), mixed with unlabelled glyphosate to a final concentration of 2 mM in a reaction buffer of 200 mM Na-Citrate, pH 6.0, 1 mM TPP, 2 mM MgCl2. Reaction was allowed to proceed 60 minutes, then 5 μl was applied to HPLC column (Dionex AminoPac PA10 analytical (and guard) column, anion exchange resin; Dionex Corporation). The column was equilibrated with 150 mM sodium hydroxide. Fractions were eluted with a sodium acetate gradient of 150-300 mM sodium acetate. Single drop (40 uL) fractions were collected, and the radioactivity present in each fraction determined using a 96-well scintillation counter. […] Control experiments lacking purified GDC-1 show no peak at this elution time.

Molecule | OD600 Mean (E. coli; 0 mM glyphosate) | OD600 Mean (E. coli; 2 mM glyphosate) | OD600 Mean (E. coli; 5 mM glyphosate) | OD600 Mean (E. coli; 10 mM glyphosate) | OD600 Mean (E. coli; 20 mM glyphosate) | Complementation of the aroA mutation (growth of ΔaroA on M63 minimal media) (E. coli ΔaroA) | Absorbance 525 nm (acetolactate synthase activity) ([1]; 5 μg GDC-2) | Absorbance 525 nm (acetolactate synthase activity) ([1]; 10 μg GDC-2) | Pyruvate decarboxylase activity [2] | Ability to modify glyphosate in vitro [3]
GDC-2: Glyphosate resistance-conferring decarboxylase protein (SEQ ID NO:15) with TPP-binding domains, homologous to acetolactate synthase (protein, Fungal isolate from soil sample) MMLRSRQASKALRALGQARHFTSTTQPAAVQAPRKVASGQRNQATAATATSAAPNVRATPSPAFNAEEQQQQKHSHVQPLVNPQKSDMDESFIGKTGGEIFHEMMLRQGVKHIFGYPGGAILPVFDAIYNSKHFDFILPRHEQGAGHMAEGYARASGKPGVVLVTSGPGATNVVTPMQDALSDGTPLVVFCGQVPTSAIGSDAFQEADVVGISRACTKWNVMVKNVAELPRRINEAFEIATSGRPGPVLVDLPKDVTAGILRRAIPTETALPALPSAASRAAMESSRKHLEHTIKRVADLVNKAKQPVIYAGQGIIQSEGGPELLKELADKASIPVTTTLQGLGGFDELDEKSLHMLGMHGSAYANMAMQEADLIIALGARFDDRVTLNVAKFAPGARAAAAEKRGGIVHFEVMPKNINKVVQATEAVEGNVGSNLKLLLPEVQAKTMDDRKEWFGKINEWKKKWPLSHYERAERHGLIKPQTLIEELSKLTADRKDKTYIATGVGQHQMWTAQHFRWRHPRSMITSGGLGTMGFGLPAAIGAKVAQPDALVFDIDGDASFGMTLTELATAAQFNIGVKVIVLNNEEQGMVTQWQNLFYEDRYAHTHQVNPDFMKLAESMRVQGRRCVDPEDVVDSLKWLINTDGPALLEVVTDKKVPVLPMVPAGSALHEFLVFDGEKDKKRRELMRERTSGLHG | 0.050 | 0.054 | 0.056 | 0.056 | 0.058 | neither GDC-1 nor GDC-2 are capable of complementing the aroA mutation | 1.99 | 3.13 |  | 
GDC-1: Glyphosate resistance-conferring decarboxylase protein (SEQ ID NO:22) with TPP-binding domains, homologous to pyruvate decarboxylase (protein, Fungal isolate from soil sample) MASINIRVQNLEQPMDVAEYLFRRLHEIGIRSIHGLPGDYNPLALDYLPSCGLRWVGSVNELNAAYAADGYARVKQMGALITTFGVGELSAINGVAGAFSEHVPVVHIVGCPSTASQRNGMLLHHTLGNGDFNIFANMSAQISCEVAKLTNPAEIATQIDHALRVCFIRSRPVYIMLPTDMVQAKVEGARLKEPIDLSEPPNDPEKEAYVVDVVLKYLRAAKNPVILVDACAIRHRVLDEVHDLIEKTNLPVFVTPMGKGAVNEEHPTYGGVYAGDGSHPPQVKDMVESSDLILTIGALKSDFNTAGFSYRTSQLNTIDLHSDHCIVKYSTYPGVQMRGVLRQVIKQLDASEINAQPAPVVENEVAKNRDNSPVITQAFFWPRVGEFLKKNDIVITETGTANFGIWDTKFPSGVTALSQVLWGSIGWSVGACQGAVLAAADDNSDRRTILFVGDGSFQLTAQELSTMIRLKLKPIIFVICNDGFTIERFIHGMEAEYNDIANWDFKALVDVFGGSKTAKKFAVKTKDELDSLLTDPTFNAAECLQFVELYMPKEDAPRALIMTAEASARNNAKTE | 0.049 | 0.056 | 0.055 | 0.057 | 0.058 | neither GDC-1 nor GDC-2 are capable of complementing the aroA mutation |  |  | showed activity as a pyruvate decarboxylase | converts a portion of the labeled glyphosate to a product

Source: patent US7807881B2, “Methods to confer herbicide resistance” (Athenix Corp., priority 2003, dated 2010)
